B1: 2×Asp: two tandem repeats of the murine tRNA asp-pyl tRNA bicistronic pair (nucleic acid)
DNA: TCCTCGTTAGTATAGTGGTGAGTATCCCCGCCTGTCACCCGCGAGACCGGCGTTCCATTCCCCGACGGGGAGACGTAGCCCCACCTCGGAAACCTGATCATGTAGATCGAATGGACTCTAAATCCGTTCAGCCGGGTTAGATTCCCGGGGTTTCCGTAGCGTCCTTTTTGGAAAGACAAGGTGCGTCGTAGTCGGCGTTGTCCTCGTTAGTATAGTGGTGAGTATCCCCGCCTGTCACCCGCGAGACCGGCGTTCCATTCCCCGACGGGGAGACGTAGCCCCACCTCGGAAACCTGATCATGTAGATCGAATGGACTCTAAATCCGTTCAGCCGGGTTAGATTCCCGGGGTTTCCGTAGCGTCCTTTTT
modifications: Synthetic sequence 2x tRNAasp-pyl DNA construct including 2 repeats of the bicistronic construct tRNAasp-pyl
notes: two tandem repeats of the murine tRNA asp-pyl tRNA bicistronic pair
B2: 3×Glu: three tandem repeats of the murine tRNA glu and pyltRNA bicistronic pair (nucleic acid)
DNA: GCCGTGACCTCGGGCCGACGCTCCCTGGTGGTCTAGTGGTTAGGATTCGGCGCTCTCACCGCCGCGGCCCGGGTTCGATTCTCGGTCAGGGAAGCCTCTCCCCCAAACCTCGGAAACCTGATCATGTAGATCGAATGGACTCTAAATCCGTTCAGCCGGGTTAGATTCCCGGGGTTTCCGCTTCTTCCTCTTTTCTGCACCCTCACTTCAGCTGAGCCGTGACCTCGGGCCGACGCTCCCTGGTGGTCTAGTGGTTAGGATTCGGCGCTCTCACCGCCGCGGCCCGGGTTCGATTCTCGGTCAGGGAAGCCTCTCCCCCAAACCTCGGAAACCTGATCATGTAGATCGAATGGACTCTAAATCCGTTCAGCCGGGTTAGATTCCCGGGGTTTCCGCTTCTTCCTCTTTTCTGCACCCCAATATTGCCGTGACCTCGGGCCGACGCTCCCTGGTGGTCTAGTGGTTAGGATTCGGCGCTCTCACCGCCGCGGCCCGGGTTCGATTCTCGGTCAGGGAAGCCTCTCCCCCAAACCTCGGAAACCTGATCATGTAGATCGAATGGACTCTAAATCCGTTCAGCCGGGTTAGATTCCCGGGGTTTCCGTAGCGTCCTTTTTGGAAAGACAAGTGGGTGGCGAATTCGATATC
modifications: Synthetic sequence 3x tRNAglu-pyl DNA construct including 3 repeats of the bicistronic construct tRNAglu-tRNApyl
notes: three tandem repeats of the murine tRNA glu and pyltRNA bicistronic pair
B3: H1-tRNA: WT tRNApyl under control of the H1 promoter, positive control (nucleic acid)
DNA: AATATTTGCATGTCGCTATGTGTTCTGGGAAATCACCATAAACGTGAAATCCCTATCAGTGATAGAGACTTATAAGTTCCCTATCAGTGATAGAGACACCAGGAAACCTGATCATGTAGATCGAATGGACTCTAAATCCGTTCAGCCGGGTTAGATTCCCGGGGTTTCCGGACAAGTGCGGTTTTTTT
modifications: Synthetic sequence H1 tRNA-WT construct
B4: B tRNA: tRNApyl Methanosarcina mazei with A52C mutation (B-box) (nucleic acid)
DNA: GGAAACCTGATCATGTAGATCGAATGGACTCTAAATCCGTTCAGCCGGGTTCGATTCCCGGGGTTTCCG
modifications: expressed or natural sequence
B5: WT tRNA: wild type tRNApyl gene of Methanosarcina mazei without extragenic promoter (nucleic acid, listed as Methanosarcina mazei)
DNA: GGAAACCTGATCATGTAGATCGAATGGACTCTAAATCCGTTCAGCCGGGTTAGATTCCCGGGGTTTCCG
modifications: expressed or natural sequence
notes: wild type tRNApyl gene of Methanosarcina mazei without extragenic promoter
B6: 7SL WT tRNA: WT tRNApyl downstream of the 7SL promoter 5′ region (nucleic acid)
DNA: CCCAGTTGATGACGTCACCATACCACAGCTTCTAGTGCTATTCTGCGCCGGTATCCGACCACCAGGAAACCTGATCATGTAGATCGAATGGACTCTAAATCCGTTCAGCCGGGTTAGATTCCCGGGGTTTCCGGACAAGTGCGGTTTTT
modifications: Synthetic sequence 7SL tRNA-WT construct
notes: WT tRNApyl downstream of the 7SL promoter 5′ region

Key:
[1] = system: GFPY40 reporter in 3H7 cells; assay: Amber suppression-dependent GFP expression (GFPY40 reporter), transient transfection of 3H7 cells, flow cytometry; type: cell-based; conditions: three days; for GFP MFI, FIG. 11: 1 ug GFPY40 and 1 ug tRNA expression vector, lys-azide; for GFP MFI in the absence of nnAA, FIG. 6: no nnAA
Description: To assess the function of the tRNA variants, an in vitro assay was established where cells are transiently transfected with a tRNA construct and a reporter construct encoding GFP containing an amber codon interrupting its reading frame (GFPY40). HEK293 cells stably expressing pylRS were transiently transfected with various tRNA constructs (1 ug) and the GFPY40 reporter (1 ug). In the absence of elements that support amber suppression, a truncated GFP protein is generated and the cell is not fluorescent. However, the introduction of a functional tRNA and the presence of a nnAA that supports amber suppression allows for the production of full length GFP resulting in fluorescent cells. The level of GFP expression reflects the efficiency of amber suppression and is quantified by flow cytometry. tRNA genes encoding wild type tRNApyl (WT tRNA), or containing mutations in the B-box (B tRNA—SEQ ID No 9), in both the A and B box (A2B tRNA—SEQ ID No 10), or in the A box (A1 tRNA-SEQ ID No 7; or A2 tRNA SEQ ID No 11), all under control of the H1 promoter were generated by site directed mutagenesis and assayed. The H1 promoter ensured that the variants were expressed and allowed us to examine the functional effects of the mutations introduced into the tRNA genes. In addition a sample transfected with GFPY40 alone was generated to establish background GFP levels. The transfected cells were grown in presence of the aminoacid analogue lys azide (2 mM) and incubated for 18 hours. GFP fluorescence was then assayed by flow cytometry and mean fluorescence intensity determined for each sample. Data were analysed with FCS Express and the mean fluorescence intensity of each sample determined using markers that constrain the data set to cells showing fluorescence above negative controls. […] The constructs thus are functional and may contain the necessary genetic sequence to enable the expression of the tRNA also in the absence of an upstream promoter element such as the H1 promoter.
Having established that the B mutation introduced into the pyltRNA sequence enabled expression of the tRNA that supported amber suppression we then asked whether this mutation affected the orthogonality of the tRNA and led to the incorporation of natural amino acids. To do this 3H7 cells were transiently transfected with expression constructs encoding WT-tRNA, B-tRNA, H1-tRNA and H1-B tRNA along with the GFPY40 reporter. Transfected cells were grown in the presence of 2 mM lys azide or absence of nnAA as indicated (FIG. 6), and GFP expression assessed by flow cytometry after three days. In addition, a sample transfected only with GFPY40 was examined to determine background amber suppression levels in the absence of tRNA. […] A comparison of GFP expression between the WT tRNA (MFI 33,781) and tRNA B (232,505) lacking extragenic promoter elements confirms that the B mutation generates a functional intragenic promoter. Indeed, the B tRNA construct enabled a seven-fold increase in the level of amber suppression dependent expression of GFP over WT tRNA.
We also tested the utility of a bicistronic tRNA expression construct for its ability to express tRNApyl. Here, the murine tRNA Glu and tRNA Asp were utilized. In each case, multiple repeats of the constructs were generated to increase activity (3×Glu-pyl and 2×Asp-pyl). Here, 3H7 cells were transiently transfected with 1 ug of the reporter construct GFPY40 and 1 ug of the indicated tRNA expression vectors (FIG. 11) and incubated with lys-azide for three days. Data were collected by flow cytometry and mean fluorescence intensities for each sample were plotted. […] The construct consisting of the 7SL WT tRNA (MFI=312) was included as a metric for low efficiency. In addition cell lines containing only the GFPY40 reporter were used as negative controls (MFI=0).

[2] = system: GFPY40 reporter (GFP containing an amber codon) in HEK293 cells stably expressing pylRS; assay: Amber suppression-dependent GFP expression (GFPY40 reporter), transient transfection, flow cytometry; type: cell-based; conditions: for GFP MFI, FIG. 9: 1 ug GFPY40 reporter and 1 ug tRNA expression plasmid; for GFP MFI, FIG. 8: 1 ug PCR product of each construct, lys azide nnAA; for GFP MFI, FIG. 10: cells stably expressing WTpylRS, lys azide; for GFP MFI, single copy tRNA, FIG. 7 / GFP MFI, tandem copies of tRNA, FIG. 7: cells expressing WTpylRS, after two days; for GFP MFI, tandem copies of tRNA, FIG. 7: single vector containing two copies in tandem
Description: To assess the function of the tRNA variants, an in vitro assay was established where cells are transiently transfected with a tRNA construct and a reporter construct encoding GFP containing an amber codon interrupting its reading frame (GFPY40). HEK293 cells stably expressing pylRS were transiently transfected with various tRNA constructs (1 ug) and the GFPY40 reporter (1 ug). In the absence of elements that support amber suppression, a truncated GFP protein is generated and the cell is not fluorescent. However, the introduction of a functional tRNA and the presence of a nnAA that supports amber suppression allows for the production of full length GFP resulting in fluorescent cells. The level of GFP expression reflects the efficiency of amber suppression and is quantified by flow cytometry. tRNA genes encoding wild type tRNApyl (WT tRNA), or containing mutations in the B-box (B tRNA—SEQ ID No 9), in both the A and B box (A2B tRNA—SEQ ID No 10), or in the A box (A1 tRNA-SEQ ID No 7; or A2 tRNA SEQ ID No 11), all under control of the H1 promoter were generated by site directed mutagenesis and assayed. The H1 promoter ensured that the variants were expressed and allowed us to examine the functional effects of the mutations introduced into the tRNA genes. In addition a sample transfected with GFPY40 alone was generated to establish background GFP levels. The transfected cells were grown in presence of the aminoacid analogue lys azide (2 mM) and incubated for 18 hours. GFP fluorescence was then assayed by flow cytometry and mean fluorescence intensity determined for each sample. Data were analysed with FCS Express and the mean fluorescence intensity of each sample determined using markers that constrain the data set to cells showing fluorescence above negative controls.
To begin to assess whether the tRNA mutations can support expression of the tRNA we assayed tRNA constructs encoding the wild type tRNA in the absence of the H1 promoter. Constructs encoding wild type tRNApyl (WT tRNA) or containing mutations in the B-box (B tRNA—SEQ ID No 9) or in both the A and B box (A2B; A2B tRNA—SEQ ID No 10) were assayed using our in vitro amber suppression assay described above. WT tRNA under control of the H1 promoter (H1-tRNA) was used as a positive control, and in addition one sample was transfected only with the GFPY40 reporter to illustrate background amber suppression in the absence of tRNA. The transfected cells were exposed to 2 mM lys-azide nnAA and cells incubated for three days. GFP expression was examined by flow cytometry and mean fluorescence intensity determined.
Two copies of the WT, B, or A2B tRNA were cloned in tandem to generate a single vector containing two copies of WT, B, or A2B tRNA. To assess the effect of increased gene doses by these constructs, cells expressing WTpylRS were transiently transfected with the tRNA constructs and the GFPY40 reporter construct and GFP expression assayed after two days.
The activity of each construct was assessed by transient transfection into cells stably expressing WT pylRS with the GFPY40 reporter as described above. For this experiment, 1 ug of a PCR product encoding each of the indicated constructs was used. In each case, cells were exposed to the lys azide nnAA for three days and GFP levels assayed by flow cytometry. Mean fluorescence intensities were determined for each sample and plotted (FIG. 8).

[3] = 2 mM lys-azide nnAA, three days

Row | Molecule | GFP MFI, FIG. 11 [1] | GFP MFI in the presence of lys-azide, FIG. 6 ([1]; 2 mM lys azide) | GFP MFI in the absence of nnAA, FIG. 6 [1] | GFP MFI, FIG. 9 [2] | GFP MFI, FIG. 8 ([2]; three days) | GFP mean fluorescence intensity (MFI), FIG. 5 [2, 3] | GFP MFI, FIG. 10 ([2]; three days) | increase in amber suppression dependent expression of GFP over WT tRNA (FIG. 6) ([1]; 2 mM lys azide) | fold higher expression of GFP than the wt tRNA construct (FIG. 5) [2, 3] | capacity to support amber suppression relative to H1 WT tRNA (FIG. 4) ([2]; all tRNA variants under control of the H1 promoter, 1 ug construct + 1 ug GFPY40, lys azide 2 mM, 18 hours) | GFP MFI, single copy tRNA, FIG. 7 [2] | GFP MFI, tandem copies of tRNA, FIG. 7 [2]
1 | B1 | 419 |  |  |  |  |  |  |  |  |  |  | 
2 | B2 | 419 |  |  |  |  |  |  |  |  |  |  | 
3 | B3 | 453 | 347,958 | 33,452 | 241,901 | 828,503 | 1,004,228.00 | 453 |  |  |  |  | 
4 | B4 |  | 232,505 | 42,104 | 89,869 |  | 410,131.1 | 329 | seven-fold | four-fold | support amber suppression, albeit at a lower level than the WT tRNA | 67,489 | 110,941
5 | B5 |  | 33,781 |  | 25,459 | 117,626 | 114,478.1 |  |  |  |  | 18,002 | 20,617
6 | B6 | 312 |  |  |  | 106,075 |  | 312 |  |  |  |  | 

Source: patent publication US10131920B2, “Nucleic acid molecules” (MEDIMMUNE LIMITED, priority 2013, dated 2018)
